Laboratory results: the supplement of paper PMC10567573

B1: MYBL2 (parent)
chain: IAKHLKGRLGKQCRERWHNHLNPE

Variants of: B1
Experiment: protein stability index of a GFP-peptide fusion (GPS, HEK-293T) (PSI 1-6); higher = more stable
Conditions: c terminus: a fixed tail appended
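Further: lentivirally expressed fusions sorted by FACS into six bins by GFP to DsRed ratio, PSI derived from sequencing read proportions per bin multiplied by bin number.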

Variant | protein stability index
IAKHLKGRLGKQCRERWHPHLNPE | 1.02
IAKHLKGRLGKQCRERWHHHLNPE | 1.73
IAKHLKGRLGKQCRERWHCHLNPE | 1.54
IAKHLKGRLGKQCRERWHKHLNPE | 1.72
IAKHLKGRLGKQCRERWHLHLNPE | 2.63
IAKHLKGRLGKQCRERWHSHLNPE | 1.91
IAKHLKGRLGKQCRERWHGHLNPE | 2.8
IAKHLKGRLGKQCRERWHQHLNPE | 2.02
IAKHLKGRLGKQCRERWHRHLNPE | 2.31
IAKHLKGRLGKQCRERWHWHLNPE | 2.24
IAKHLKGRLGKQCRERWHEHLNPE | 2.24
IAKHLKGRLGKQCRERWHTHLNPE | 1.9
IAKHLKGRLGKQCRERWHMHLNPE | 1.63
IAKHLKGRLGKQCRERWHYHLNPE | 3.59
IAKHLKGRLGKQCRERWHDHLNPE | 2.05
IAKHLKGRLGKQCRERWHVHLNPE | 2.05
IAKHLKGRLGKQCRERWHIHLNPE | 3.11
IAKHLKGRLGKQCRERWHFHLNPE | 2.58
IAKHLKGRLGKQCRERWHAHLNPE | 1.41
IAKHLKGRLGKQCRVRWHNHLNPE | 2.12
IAKHLKGRLGKQCRLRWHNHLNPE | 2.48
IAKHLKGRLGKQCRHRWHNHLNPE | 1.25
IAKHLKGRLGKQCRMRWHNHLNPE | 3.02
IAKHLKGRLGKQCRNRWHNHLNPE | 1.69

Variant | protein stability index
IAKHLKGRLGKQCRGRWHNHLNPE | 1.9
IAKHLKGRLGKQCRDRWHNHLNPE | 1.73
IAKHLKGRLGKQCRIRWHNHLNPE | 1.96
IAKHLKGRLGKQCRWRWHNHLNPE | 3.6
IAKHLKGRLGKQCRQRWHNHLNPE | 1.49
IAKHLKGRLGKQCRKRWHNHLNPE | 2.18
IAKHLKGRLGKQCRARWHNHLNPE | 2.17
IAKHLKGRLGKQCRTRWHNHLNPE | 2.5
IAKHLKGRLGKQCRFRWHNHLNPE | 2.26
IAKHLKGRLGKQCRCRWHNHLNPE | 2.38
IAKHLKGRLGKQCRYRWHNHLNPE | 2.12
IAKHLKGRLGKQCRSRWHNHLNPE | 1.23
IAKHLKGRLGKQCRRRWHNHLNPE | 1.96
IAKHLKGRLGKQCRPRWHNHLNPE | 1.63
IAKHLKGRLGGQCRERWHNHLNPE | 3.92
IAKHLKGRLGMQCRERWHNHLNPE | 2.69
IAKHLKGRLGHQCRERWHNHLNPE | 2.41
IAKHLKGRLGCQCRERWHNHLNPE | 2.09
IAKHLKGRLGFQCRERWHNHLNPE | 1.4
IAKHLKGRLGIQCRERWHNHLNPE | 1.97
IAKHLKGRLGQQCRERWHNHLNPE | 1.79
IAKHLKGRLGAQCRERWHNHLNPE | 2.06
IAKHLKGRLGTQCRERWHNHLNPE | 1.67
IAKHLKGRLGEQCRERWHNHLNPE | 2.46

Variant | protein stability index
IAKHLKGRLGNQCRERWHNHLNPE | 2.43
IAKHLKGRLGWQCRERWHNHLNPE | 2.44
IAKHLKGRLGRQCRERWHNHLNPE | 1.95
IAKHLKGRLGSQCRERWHNHLNPE | 2.43
IAKHLKGRLGLQCRERWHNHLNPE | 2.36
IAKHLKGRLGDQCRERWHNHLNPE | 2.47
IAKHLKGRLGVQCRERWHNHLNPE | 2.12
IAKHLKGRLGYQCRERWHNHLNPE | 2.02
IAKHLKGRLGPQCRERWHNHLNPE | 1.75
IAKHLKGRLGKQCRERWHNALNPE | 1.69
IAKHLKGRLGKQCRERCHNHLNPE | 2.3
IAKHLKGRLGKQCRERQHNHLNPE | 2.71
IAKHLKGRLGKQCRERKHNHLNPE | 2.94
IAKHLKGRLGKQCRERPHNHLNPE | 3.13
IAKHLKGRLGKQCRERIHNHLNPE | 2.14
IAKHLKGRLGKQCRERMHNHLNPE | 2.31
IAKHLKGRLGKQCRERAHNHLNPE | 2.35
IAKHLKGRLGKQCRERTHNHLNPE | 2.69
IAKHLKGRLGKQCRERSHNHLNPE | 2.53
IAKHLKGRLGKQCRERYHNHLNPE | 2.38
IAKHLKGRLGKQCRERHHNHLNPE | 2.69
IAKHLKGRLGKQCRERFHNHLNPE | 2.81
IAKHLKGRLGKQCRERRHNHLNPE | 2.4
IAKHLKGRLGKQCRERGHNHLNPE | 2.52

Variant | protein stability index
IAKHLKGRLGKQCRERNHNHLNPE | 2.8
IAKHLKGRLGKQCRERLHNHLNPE | 2.96
IAKHLKGRLGKQCRERVHNHLNPE | 2.08
IAKHLKGRLGKQCREREHNHLNPE | 3.22
IAKHLKGRLGKQCRERDHNHLNPE | 2.4
IAKHLKGRLGKQCLERWHNHLNPE | 1.63
IAKHLKGRLGKQCAERWHNHLNPE | 2
IAKHLKGRLGKQCGERWHNHLNPE | 2.03
IAKHLKGRLGKQCYERWHNHLNPE | 2.12
IAKHLKGRLGKQCCERWHNHLNPE | 1.77
IAKHLKGRLGKQCDERWHNHLNPE | 2.56
IAKHLKGRLGKQCNERWHNHLNPE | 2.62
IAKHLKGRLGKQCMERWHNHLNPE | 1.29
IAKHLKGRLGKQCKERWHNHLNPE | 1.87
IAKHLKGRLGKQCPERWHNHLNPE | 2.64
IAKHLKGRLGKQCVERWHNHLNPE | 1.74
IAKHLKGRLGKQCWERWHNHLNPE | 1.82
IAKHLKGRLGKQCTERWHNHLNPE | 2.61
IAKHLKGRLGKQCHERWHNHLNPE | 2.3
IAKHLKGRLGKQCEERWHNHLNPE | 2.59
IAKHLKGRLGKQCQERWHNHLNPE | 2.52
IAKHLKGRLGKQCIERWHNHLNPE | 1.83
